Literature values as cited in article PMC8020814.

Target: C3b C3b (Homo sapiens) (UniProt P01024)
Sequence of UniProt P01024 (P01024 566-670): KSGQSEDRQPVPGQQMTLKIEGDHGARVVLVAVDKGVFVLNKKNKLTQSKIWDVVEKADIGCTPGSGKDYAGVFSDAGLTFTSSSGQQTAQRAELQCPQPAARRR

Kd: 11 µM
Substance: Factor H FH(1-4) (from UniProt P08603)
